Here are results for one molecule from PMC5428714, “The structures of a naturally empty cowpea mosaic virus particle and its genome-containing counterpart by cryo-electron microscopy” (Scientific Reports, 2017).

Series [1] concerns the target T1, Cowpea mosaic virus (CPMV) Large (L) coat protein (Cowpea mosaic virus, UniProt P03599 460-833).
T1 construct: Large (L) coat protein of Cowpea mosaic virus, cut from the RNA-2-encoded precursor polyprotein (VP60) by the 24 K viral proteinase; numbers count on: the mature L subunit; 60 copies each of L and S form the icosahedral capsid; also called L subunit; large coat protein subunit; source: for the cleaved eVLP map: recombinant eVLP from transient expression of VP60 and the 24 K protease
T1 sequence: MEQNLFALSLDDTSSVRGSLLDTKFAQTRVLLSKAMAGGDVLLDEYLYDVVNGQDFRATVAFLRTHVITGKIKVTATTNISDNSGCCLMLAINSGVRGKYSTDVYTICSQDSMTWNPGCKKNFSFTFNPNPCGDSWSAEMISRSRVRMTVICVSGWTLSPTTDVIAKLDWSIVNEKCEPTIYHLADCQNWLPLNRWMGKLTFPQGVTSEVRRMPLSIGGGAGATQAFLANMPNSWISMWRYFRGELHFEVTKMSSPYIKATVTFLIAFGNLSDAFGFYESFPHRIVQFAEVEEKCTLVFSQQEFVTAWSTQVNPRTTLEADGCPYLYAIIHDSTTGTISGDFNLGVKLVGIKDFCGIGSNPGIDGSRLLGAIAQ
Briefly: cryo-EM structure; purified CPMV-T particles (naturally empty capsid assembled in planta), ~1.92 mg/ml, vitrified at 4 °C; icosahedral (I3) symmetry imposed; 4.25 Å. Conditions: both partners purified.

Series [2] concerns the molecule itself. The series is described as above.

B1: Cowpea mosaic virus (CPMV) Small (S) coat protein with the C terminal extension (as in CPMV-T) (natural protein)
chain: GPVCAEASDVYSPCMIASTPPAPFSDVTAVTFDLINGKITPVGDDNWNTHIYNPPIMNVLRTAAWKSGTIHVQLNVRGAGVKRADWDGQVFVYLRQSMNPESYDARTFVISQPGSAMLNFSFDIIGPNSGFEFAESPWANQTTWYLECVATNPRQIQQFEVNMRFDPNFRVAGNILMPPFPLSTETPPLLKFRFRDIERSKRSVMVGHTATAA
notes: Small (S) coat protein of Cowpea mosaic virus, cut from the RNA-2-encoded precursor polyprotein (VP60), with the 24 amino acid C terminal extension kept; density to Thr184 and from Pro188 to Ile197; numbers count on: the mature S subunit; Naturally empty particles are cleaved more slowly and keep the C-terminus for longer; residues after Ile197 are not seen in the map; also called S subunit; …
For B1, the binding result in series [1] and in series [2] was “binds” throughout.
